Measurements published in publication PMC4374775, “New Insights on the Mechanism of the K^+-Independent Activity of Crenarchaeota Pyruvate Kinases” (PLoS ONE, 2015).
Read-outs that look alike come from different tables or passages of the source. One block for each molecule: values may come before it.

Experiments:
[1] = molecular target: T1, Thermofilum pendens pyruvate kinase (TpPK) (Thermofilum pendens, UniProt A1RX09); experiment: dead-end inhibition kinetics, LDH/NADH-coupled assay, […]°C, pH […]; type: biochemical
T1 construct: gene Tpen_0330; full-length with N-terminal His6 tag and TEV site (23 additional residues); homotetramer

[2] = molecular target: Thermofilum pendens pyruvate kinase (Thermofilum pendens); experiment: native gel or EMSA; BN-PAGE, overnight at 4°C, 150 μg of TpPK; RMPK as molecular weight marker; native band of approximately 200 kDa
[3] = substrate: Nc1ncnc2c1ncn2[C@@H]1O[C@H](COP(=O)(O)OP(=O)(O)O)[C@@H](O)[C@H]1O; experiment: initial velocity kinetics (Km), LDH/NADH-coupled assay; type: biochemical, Thermofilum pendens; conditions: Mg2+ active site; random-order binding with PEP
purified protein = substrate: C=C(OP(=O)(O)O)C(=O)O; experiment: purified protein; conditions: Mg2+ active site; random-order binding with ADP-Mg

- Ki ([1]; read-out: K i (oxalate)): 0.05 ± 0.002 mM
Molecule: O=C(O)C(=O)O [oxalate]

- stoichiometry N [2]: 4
Molecule: Thermofilum pendens pyruvate kinase (enzyme)

Second part, the molecule before the results:

Molecule: Nc1ncnc2c1ncn2[C@@H]1O[C@H](COP(=O)(O)O)[C@@H](O)[C@H]1O [AMP]
- Ki ([1]; read-out: K i (AMP)): 35 ± 1.2 mM

B1: Thermofilum pendens pyruvate kinase (TpPK) (Thermofilum pendens Hrk 5) (protein)
chain: MAKVKLVATLGPSSWSEETMKRMVAEGVNAFRLNFSHVDYARFEELAKQVRRLETPLRPLTLIADLQGPVIRLGEFAPFQVRPGDRVTFTLSSKTEEKYAVPVPNGVFFEIVREGDEVLVEGGRLAFRIVDAGPEKAVGEALLEGEVKPRKTVTVRGKDIPLPTITEKDLRDIEFSVKAGFDAIALSFVRSSSDVQRLRDILFDYGAEDVKIIAKIETKSAVEDLDSILQKSDAALVARGDLANFYGLEEIYSIQRYIISRARRFGKPSIVATQLLESMISNPLPTRSEVVDVITAVRMGADALLLAGETAAGKYPVESVYWLRRIVEEAEREPLEVEDVAPDKSDLYESIAKGVVSLAEVISGKIIAFSEKGNTARRISKFRPKAGLIVFTNDPATARYVNMIYGVRVVYDPSLSKADQNLFSKMLSKALEHNLVNLGDLVVFTSGRRRGSTDLVSVERVKSE
notes: full-length with N-terminal His6 tag and TEV site (23 additional residues); homotetramer
- Km [3]: 160 ± 10 µM
- Km (purified protein): 380 ± 30 µM
